Assay results published in patent US20200277385A1.

Columns and labels:
[1] = target: human CD303 antigen expressed on cells (human) (UniProt Q8WTT0); test: cell-based or functional assay
[2] = target: human CD303 antigen expressed on cells (human) (UniProt Q8WTT0); test: flow cytometry on CAL-1 cells (experiment with BIIB059)
[3] = target: human CD303 antigen expressed on cells (human) (UniProt Q8WTT0); test: flow cytometry on CAL-1 cells transfected with CD303 (about 40,000-50,000 CD303/cell)

human CD303 antigen expressed on cells (human), sequence (Q8WTT0 whole entry): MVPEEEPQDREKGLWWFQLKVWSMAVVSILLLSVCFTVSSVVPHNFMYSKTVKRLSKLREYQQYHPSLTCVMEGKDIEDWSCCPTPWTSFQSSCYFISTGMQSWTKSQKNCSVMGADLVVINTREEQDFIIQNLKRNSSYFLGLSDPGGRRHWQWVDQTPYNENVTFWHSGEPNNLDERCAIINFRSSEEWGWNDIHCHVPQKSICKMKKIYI

B1: humanized antibody BIIB059 (antibody, INN chains, looked up, V domains shown)
VH: DVQLVESGGGLVKPGGSLRLSCAASGFTFSTYTMSWVRQAPGKGLEWVATISPGDSFGYYYPDSVQGRFTISRDNAKNSLYLQMNSLRAEDTAVYYCTRDIYYNYGAWFAYWGQGTLVTVSS
VL: DIQLTQSPSSLSASVGDRVTITCKASQSVDYDGDSYMNWYQQKPGKAPKLLIYAASTLESGVPSRFSGSGSGTDFTLTISSLQPEDFATYYCQQANEDPRTFGQGTKVEIK
- ADCC Emax (% lysis), CAL-1 target cells [1]: 1.12 % lysis
- Bmax (MFI) [2]: 11.8 MFI
- EC50 [2]: 0.6 mg/L
- Bmax (MFI) [3]: 382 MFI
- EC50 [3]: 0.784 mg/L
